Measured values taken from IntAct's records for PubMed 17190814.

B1: Antiviral innate immune response receptor RIG-I (Homo sapiens), O95786-1 (parent)
chain: MTTEQRRSLQAFQDYIRKTLDPTYILSYMAPWFREEEVQYIQAEKNNKGPMEAATLFLKFLLELQEEGWFRGFLDALDHAGYSGLYEAIESWDFKKIEKLEEYRLLLKRLQPEFKTRIIPTDIISDLSECLINQECEEILQICSTKGMMAGAEKLVECLLRSDKENWPKTLKLALEKERNKFSELWIVEKGIKDVETEDLEDKMETSDIQIFYQEDPECQNLSENSCPPSEVSDTNLYSPFKPRNYQLELALPAMKGKNTIICAPTGCGKTFVSLLICEHHLKKFPQGQKGKVVFFANQIPVYEQQKSVFSKYFERHGYRVTGISGATAENVPVEQIVENNDIIILTPQILVNNLKKGTIPSLSIFTLMIFDECHNTSKQHPYNMIMFNYLDQKLGGSSGPLPQVIGLTASVGVGDAKNTDEALDYICKLCASLDASVIATVKHNLEELEQVVYKPQKFFRKVESRISDKFKYIIAQLMRDTESLAKRICKDLENLSQIQNREFGTQKYEQWIVTVQKACMVFQMPDKDEESRICKALFLYTSHLRKYNDALIISEHARMKDALDYLKDFFSNVRAAGFDEIEQDLTQRFEEKLQELESVSRDPSNENPKLEDLCFILQEEYHLNPETITILFVKTRALVDALKNWIEGNPKLSFLKPGILTGRGKTNQNTGMTLPAQKCILDAFKASGDHNILIATSVADEGIDIAQCNLVILYEYVGNVIKMIQTRGRGRARGSKCFLLTSNAGVIEKEQINMYKEKMMNDSILRLQTWDEAVFREKILHIQTHEKFIRDSQEKPKPVPDKENKKLLCRKCKALACYTADVRVIEECHYTVLGDAFKECFVSRPHPKPKQFSSFEKRAKIFCARQNCSHDWGIHVKYKTFEIPVIKIESFVVEDIATGVQTLYSKWKDFHFEKIPFDPAEMSK

Variants of: B1
Settings: with MAVS

Row | Variant | effect of a mutation on the interaction
1 | T55I | decreasing interaction strength
